Results as given in publication PMC11497598.

Assays:
Test in all cases: analytical SEC
Details in all cases: cell culture supernatant of Expi293F cells; parent: est. 72; read off a plot
[1] = biological target: B/Iowa/06/2017 HA HA1 152W
[2] = biological target: B/Iowa/06/2017 HA HA1 T211L
[3] = biological target: B/Iowa/06/2017 HA HA1 T218I
[4] = biological target: B/Iowa/06/2017 HA HA2 67A
[5] = biological target: B/Iowa/06/2017 HA HA2 91V
[6] = biological target: B/Iowa/06/2017 HA HA2 111L
[7] = biological target: B/Iowa/06/2017 HA HA2 E113N
[8] = biological target: B/Iowa/06/2017 HA HA2 H22F
[9] = biological target: B/Iowa/06/2017 HA HA2 H22W
[10] = biological target: B/Iowa/06/2017 HA HA2 H114F
[11] = biological target: B/Iowa/06/2017 HA HA2 H114N

wild-type soluble hemagglutinin (HA) of influenza B/Iowa/06/2017 HA1:152W
other: trimer fraction [1]: 81%

wild-type soluble hemagglutinin (HA) of influenza B/Iowa/06/2017 HA1:T211L
other: trimer fraction [2]: 95%

wild-type soluble hemagglutinin (HA) of influenza B/Iowa/06/2017 HA1:T218I
other: trimer fraction [3]: 82%

wild-type soluble hemagglutinin (HA) of influenza B/Iowa/06/2017 HA2:67A
other: trimer fraction [4]: 64%

wild-type soluble hemagglutinin (HA) of influenza B/Iowa/06/2017 HA2:91V
other: trimer fraction [5]: 77%

wild-type soluble hemagglutinin (HA) of influenza B/Iowa/06/2017 HA2:111L
other: trimer fraction [6]: 55%

wild-type soluble hemagglutinin (HA) of influenza B/Iowa/06/2017 HA2:E113N
other: trimer fraction [7]: 96%

wild-type soluble hemagglutinin (HA) of influenza B/Iowa/06/2017 HA2:H22F
other: trimer fraction [8]: 91%

wild-type soluble hemagglutinin (HA) of influenza B/Iowa/06/2017 HA2:H22W
other: trimer fraction [9]: 81%

wild-type soluble hemagglutinin (HA) of influenza B/Iowa/06/2017 HA2:H114F
other: trimer fraction [10]: 75%

wild-type soluble hemagglutinin (HA) of influenza B/Iowa/06/2017 HA2:H114N
other: trimer fraction [11]: 57%
